Source: patent publication US20260234234A1 (QILU PUGET SOUND BIOTHERAPEUTICS, published 2026)

T1: His6-tagged cyIL-33 (Ser112-Ile270), QB10976 (cynomolgus monkey)
T1 construct: Entry includes N-terminal Avitag, FLAG and His6 tags; isoform X1, NCBI XP_005581824; also called cyIL-33 antigen
T1 chain: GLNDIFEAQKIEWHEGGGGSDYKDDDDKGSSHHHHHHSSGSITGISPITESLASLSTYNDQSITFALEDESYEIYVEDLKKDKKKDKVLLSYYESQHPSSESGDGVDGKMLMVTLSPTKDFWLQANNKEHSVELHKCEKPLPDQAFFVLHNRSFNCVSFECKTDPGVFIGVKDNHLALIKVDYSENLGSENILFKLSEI

T2: hST2-Fc protein from R&D Systems (cat no. 523-ST-100) (human, UniProt Q01638 19-328, limits assumed)
T2 construct: Bought reagent; also called human ST2
T2 sequence (looked up): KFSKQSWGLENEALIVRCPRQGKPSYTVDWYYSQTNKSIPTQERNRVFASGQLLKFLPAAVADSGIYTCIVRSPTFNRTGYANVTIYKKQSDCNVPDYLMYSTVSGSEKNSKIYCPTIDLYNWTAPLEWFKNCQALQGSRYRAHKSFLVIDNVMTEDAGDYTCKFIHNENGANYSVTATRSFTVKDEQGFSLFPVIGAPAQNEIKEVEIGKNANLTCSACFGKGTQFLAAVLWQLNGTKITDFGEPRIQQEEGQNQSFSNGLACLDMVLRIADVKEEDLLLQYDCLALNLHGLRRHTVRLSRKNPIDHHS

B1: anti-hIL-33 IgG1 antibody QB11421 (antibody)
heavy: EVQLLESGGGLVQPGGSLRLSCAASGFTFYSSAMSWFRQTQGKGLEWVSTISSGGSNTYYPDSVKGRFTISRDNSKNTLYLQMNSLGAEDTAVYYCASAYYGRRYDAMDYWGQGTLVTVSSASTKGPSVFPLAPSSKSTSGGTAALGCLVKDYFPEPVTVSWNSGALTSGVHTFPAVLQSSGLYSLSSVVTVPSSSLGTQTYICNVNHKPSNTKVDKKVEPKSCDKTHTCPPCPAPEAAGGPSVFLFPPKPKDTLMISRTPEVTCVVVDVSHEDPEVKFNWYVDGVEVHNAKTKPREEQYNSTYRVVSVLTVLHQDWLNGKEYKCKVSNKALAAPIEKTISKAKGQPREPQVYTLPPSREEMTKNQVSLTCLVKGFYPSDIAVEWESNGQPENNYKTTPPVLDSDGSFFLYSKLTVDKSRWQQGNVFSCSVMHEALHNHYTQKSLSLSPGK
light: DVVMTQSPPSLPVTLGQSASISCKSSESLLHSNANTYLYWFQQRPGQSPQLLIYRGSNLASGVPDRFSGSGSGTDFTLKISRVEAEDVGVYYCMQHLRNPYTFGQGTKVEIKRTVAAPSVFIFPPSDEQLKSGTASVVCLLNNFYPREAKVQWKVDNALQSGNSQESVTEQDSKDSTYSLSSTLTLSKADYEKHKVYACEVTHQGLSSPVTKSFNRGEC
notes: IgG1 L234A, L235A, P329A; also called top clone as IgG1
B2: Avitag_c-MYC_His6-tagged hIL-33 (Ser112-Thr270), QB10975 (ligand)
chain: GLNDIFEAQKIEWHEGGGGSEQKLISEEDLGSSHHHHHHSSGSITGISPITEYLASLSTYNDQSITFALEDESYEIYVEDLKKDEKKDKVLLSYYESQHPSNESGDGVDGKMLMVTLSPTKDFWLHANNKEHSVELHKCEKPLPDQAFFVLHNMHSNCVSFECKTDPGVFIGVKDNHLALIKVDSSENLCTENILFKLSET
notes: Entry includes N-terminal Avitag, c-MYC and His6 tags; reduced with DTT to the active form; also called active hIL-33; reduced hIL-33

Tests used:
[1] = molecular target: B2; experiment: SPR
Protocol: (§1) The kinetic binding data was obtained using SPR on a Biacore T200 equipment. […] The complex was allowed to associate for 3 min and dissociate for up to 1 hr. At the end of each cycle the CM4 chips were regenerated with 10 mM glycine pH1.5. The T200 Evaluation software V3.2 was used to align and double reference the data. The results were fit to a 1:1 binding model using the global data analysis option within the software.

[2] = molecular target: T1, His6-tagged cyIL-33 (Ser112-Ile270), …; experiment: SPR, cyIL-33 analyte
Protocol: as §1

[3] = molecular target: B2; experiment: SPR, captured antibody, hIL-33 analyte, 37 C, 1:1 fit
Protocol: (§2) The polyclonal goat-anti-human IgG (Fc specific) antibodies were immobilized on a CM4 chip surface using a standard amine coupling method. […] After each cycle, the chip was regenerated with 10 mM glycine-HCl, pH 1.5. The results were analyzed using Biacore T200 evaluation software V3.2. Results were double referenced and fit to a 1:1 interaction model.
(§3) The kinetic binding data was obtained using SPR on a Biacore T200 equipment. […] The complex was allowed to associate for 3 min and dissociate for up to 1 hr. At the end of each cycle the CM4 chips were regenerated with 10 mM glycine pH1.5. The T200 Evaluation software V3.2 was used to align and double reference the data.

[4] = molecular target: T1, His6-tagged cyIL-33 (Ser112-Ile270), …; experiment: SPR, captured antibody, cyIL-33 analyte, 25 C, 1:1 fit
Protocol: as §2, §3

[5] = molecular target: T2, hST2-Fc protein from R&D Systems (cat …); experiment: SPR, hST2-Fc immobilised on CM5, RU against hIL-33 concentration, 1 min association; 1 min association
Protocol: (§4) Assessment was performed by SPR (Surface Plasmon Resonance) using Biacore 2000. The x-axis represents antibody concentration (nM), the y-axis represents the Response Units (RU) after correction by blank buffer.
(§5) The binding capacity as Response Units (RU) was recorded.

[6] = molecular target: T2, hST2-Fc protein from R&D Systems (cat …); experiment: SPR, hST2-Fc immobilised on CM5, RU against hIL-33 concentration, 2 min association; 2 min association
Protocol: as §4, §5

Binder | fold increase of affinity against parental antibody QB11119 [1] [fold] | fold improvement of affinity against parental antibody QB11119 [2] [fold] | Kd [3] [nM] | koff [3] [s⁻¹] | kon [3] [M⁻¹ s⁻¹] | Kd [4] [nM] | koff [4] [s⁻¹] | kon [4] [M⁻¹ s⁻¹] | EC50 [5] [nM] | EC50 [6] [nM]
B1 | ~2 | ~3 | 0.207 | 0.000669 | 3.23e+06 | 4.89 | 0.00188 | 384000 |  | 
B2 |  |  |  |  |  |  |  |  | 10.8 | 5.17
